# Laboratory results as given in patent US20030022265.
# Assays:
# [1] = test system: plasmid library of pADH-SteSubInv with random substitution of the 5th and 6th amino acids of cleavage region of α-factor
# [2] = biological target: T1, fusion protein comprising Golgi recognition signal and transmembrane domain of yeast Golgi protein Ste13, cleavage site of yeast α-factor, and yeast invertase (UniProt P33894)
# T1 sequence: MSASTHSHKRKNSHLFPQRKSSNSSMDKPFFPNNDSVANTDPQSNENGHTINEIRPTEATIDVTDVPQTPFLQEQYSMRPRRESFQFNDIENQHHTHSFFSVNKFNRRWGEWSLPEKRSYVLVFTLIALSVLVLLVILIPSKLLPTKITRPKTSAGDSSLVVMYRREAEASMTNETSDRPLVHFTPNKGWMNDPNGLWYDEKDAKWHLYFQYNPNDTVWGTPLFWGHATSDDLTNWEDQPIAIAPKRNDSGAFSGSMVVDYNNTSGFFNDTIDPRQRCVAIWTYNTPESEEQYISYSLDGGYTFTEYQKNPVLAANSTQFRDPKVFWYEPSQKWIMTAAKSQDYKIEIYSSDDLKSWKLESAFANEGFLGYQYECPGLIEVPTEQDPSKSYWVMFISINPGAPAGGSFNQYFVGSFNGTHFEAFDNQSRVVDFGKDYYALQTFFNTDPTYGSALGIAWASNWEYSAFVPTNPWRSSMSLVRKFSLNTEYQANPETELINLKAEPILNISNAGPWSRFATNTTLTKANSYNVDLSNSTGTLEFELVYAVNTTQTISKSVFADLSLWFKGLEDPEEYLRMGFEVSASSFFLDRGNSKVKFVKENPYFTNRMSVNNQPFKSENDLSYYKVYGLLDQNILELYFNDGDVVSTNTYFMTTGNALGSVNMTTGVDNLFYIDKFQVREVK
# [3] = test system: product of plasmid pADH-SteInv
substance,measurement,setting,value
Kex2,residues found at the randomised substrate positions in colonies grown on sucrose plates,[1],"Various amino acids such as D, E, A, V, P, S, Q, K, R, and H were found at the 6th amino acid, while, solely R was found at the 5th amino acid"
same,"viability of cotransformed suc2, kex2 mutant yeast on sucrose-containing plate",[2],transformants of test group 1 were survived both on glucose-containing and sucrose-containing plates
same,"viability of cotransformed suc2, kex2 mutant yeast on sucrose-containing plate",[3],transformants of test groups 2 to 4 were not able to grow on sucrose plates
